Laboratory results taken from US20250376520A1 (SINGAPORE HEALTH SERVICES PTE, published 2025).

Target: human TRPM4 (transient receptor potential melastatin 4) channel, myc-tagged, expressed in HEK 293 cells (human, UniProt Q8TD43 1-1214)
Test: cell-based or functional assay

Sequence of human TRPM4 (transient receptor potential melastatin 4) channel, myc-tagged, expressed in HEK 293 cells (Q8TD43 whole entry): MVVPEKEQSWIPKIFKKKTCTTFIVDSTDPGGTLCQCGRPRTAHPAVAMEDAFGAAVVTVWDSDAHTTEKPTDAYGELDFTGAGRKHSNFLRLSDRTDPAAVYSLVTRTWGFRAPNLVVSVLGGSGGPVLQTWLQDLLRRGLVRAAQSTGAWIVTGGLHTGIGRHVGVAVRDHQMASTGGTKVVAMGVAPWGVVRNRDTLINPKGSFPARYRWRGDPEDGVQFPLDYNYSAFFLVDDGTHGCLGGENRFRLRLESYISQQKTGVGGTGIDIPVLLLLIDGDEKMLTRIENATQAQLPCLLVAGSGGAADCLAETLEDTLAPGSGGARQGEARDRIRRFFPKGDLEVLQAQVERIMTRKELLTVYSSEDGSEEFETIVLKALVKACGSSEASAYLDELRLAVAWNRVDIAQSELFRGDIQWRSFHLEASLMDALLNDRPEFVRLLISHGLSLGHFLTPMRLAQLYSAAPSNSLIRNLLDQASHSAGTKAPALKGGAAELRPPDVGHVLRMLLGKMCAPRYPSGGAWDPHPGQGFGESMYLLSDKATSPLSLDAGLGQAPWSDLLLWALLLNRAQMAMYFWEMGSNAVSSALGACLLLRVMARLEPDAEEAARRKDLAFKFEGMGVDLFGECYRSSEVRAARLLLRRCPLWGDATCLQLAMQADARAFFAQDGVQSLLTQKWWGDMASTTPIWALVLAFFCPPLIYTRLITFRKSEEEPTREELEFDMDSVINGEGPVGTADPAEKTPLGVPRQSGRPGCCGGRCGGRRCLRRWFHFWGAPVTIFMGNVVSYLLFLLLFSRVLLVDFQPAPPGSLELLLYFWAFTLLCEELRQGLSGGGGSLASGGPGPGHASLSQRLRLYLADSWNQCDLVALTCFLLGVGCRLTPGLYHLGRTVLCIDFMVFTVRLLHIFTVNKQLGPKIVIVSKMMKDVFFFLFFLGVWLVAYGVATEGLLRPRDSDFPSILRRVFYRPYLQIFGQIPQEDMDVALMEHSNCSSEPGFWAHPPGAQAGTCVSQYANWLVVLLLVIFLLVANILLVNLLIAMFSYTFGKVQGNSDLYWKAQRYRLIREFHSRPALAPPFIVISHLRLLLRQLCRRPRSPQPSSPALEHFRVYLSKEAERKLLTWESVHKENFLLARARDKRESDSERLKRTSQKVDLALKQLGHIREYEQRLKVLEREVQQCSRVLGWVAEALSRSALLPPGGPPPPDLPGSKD

B1: humanized anti-TRPM4 antibody clone A6 (VH2 + VL1), renamed M4H (antibody, human IgG1, kappa, V domains shown)
VH: QVQLQESGPGLVKPSQTLSLTCTVSGYSITSDYAWNWIRQHPGKGLEWMGYLSYSGVTSYNPSLKGRVTISRDTSKNQFSLKLSSVTAADTAVYYCARKGTYYRYEGSYWYFDVWGQGTTVTVSS
VL: DIQMTQSPSSLSASVGDRVTITCHANQNIDVWLSWYQQKPGKAPKLLIYKTSNLHTGVPSRFSGSGSGTDFTFTISSLQPEDIATYYCQQGQSYPLTFGGGTKLEIKR
- IC50, dose-dependent inhibition of hypoxia-induced TRPM4 current increase: 1.04 µg/mL
